Experimental data taken from US10450368.

Key:
SSA [1] = experiment: AtheNA, Ab 25 ug/ml
Centromere B [2] = molecular target: Centromere B (UniProt P07199); experiment: AtheNA, Ab 25 ug/ml
Jo-1 [3] = molecular target: Jo-1 (UniProt P12081); experiment: AtheNA, Ab 25 ug/ml
Sm (Smith antigen) [4] = experiment: AtheNA, Ab 25 ug/ml
Histones [5] = experiment: AtheNA, Ab 25 ug/ml
SSB [6] = molecular target: SSB (UniProt P05455); experiment: AtheNA, Ab 25 ug/ml
RNP (ribonucleoprotein) [7] = experiment: AtheNA, Ab 25 ug/ml
Scl-70 [8] = molecular target: Scl-70 (UniProt P11387); experiment: AtheNA, Ab 25 ug/ml
Chain of Scl-70 (P11387 whole entry): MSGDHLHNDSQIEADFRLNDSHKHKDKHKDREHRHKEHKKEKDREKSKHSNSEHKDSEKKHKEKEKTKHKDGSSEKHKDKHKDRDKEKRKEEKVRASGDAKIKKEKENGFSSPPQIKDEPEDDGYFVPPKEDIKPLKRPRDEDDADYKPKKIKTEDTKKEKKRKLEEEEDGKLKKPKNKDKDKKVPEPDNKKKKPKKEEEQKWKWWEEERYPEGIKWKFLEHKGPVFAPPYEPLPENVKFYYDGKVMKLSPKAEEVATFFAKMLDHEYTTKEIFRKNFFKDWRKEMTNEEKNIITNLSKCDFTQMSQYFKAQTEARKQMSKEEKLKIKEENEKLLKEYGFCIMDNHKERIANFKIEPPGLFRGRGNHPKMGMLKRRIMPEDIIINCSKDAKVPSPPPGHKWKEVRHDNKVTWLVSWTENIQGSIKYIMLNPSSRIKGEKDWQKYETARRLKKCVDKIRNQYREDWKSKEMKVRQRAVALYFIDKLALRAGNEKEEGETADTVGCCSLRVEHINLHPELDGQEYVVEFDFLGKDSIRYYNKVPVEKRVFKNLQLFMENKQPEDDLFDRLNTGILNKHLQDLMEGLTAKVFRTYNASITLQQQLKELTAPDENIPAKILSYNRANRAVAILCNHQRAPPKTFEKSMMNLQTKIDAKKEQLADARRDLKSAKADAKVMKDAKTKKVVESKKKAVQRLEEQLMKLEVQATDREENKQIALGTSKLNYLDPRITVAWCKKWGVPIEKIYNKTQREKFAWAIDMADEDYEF

SSA [9] = experiment: AtheNA, Ab 12.5 ug/ml
Centromere B [10] = molecular target: Centromere B (UniProt P07199); experiment: AtheNA, Ab 12.5 ug/ml
Jo-1 [11] = molecular target: Jo-1 (UniProt P12081); experiment: AtheNA, Ab 12.5 ug/ml
Sm (Smith antigen) [12] = experiment: AtheNA, Ab 12.5 ug/ml
Histones [13] = experiment: AtheNA, Ab 12.5 ug/ml
SSB [14] = molecular target: SSB (UniProt P05455); experiment: AtheNA, Ab 12.5 ug/ml
RNP (ribonucleoprotein) [15] = experiment: AtheNA, Ab 12.5 ug/ml
Scl-70 [16] = molecular target: Scl-70 (UniProt P11387); experiment: AtheNA, Ab 12.5 ug/ml
SSA [17] = experiment: AtheNA, Ab 6.25 ug/ml
Centromere B [18] = molecular target: Centromere B (UniProt P07199); experiment: AtheNA, Ab 6.25 ug/ml
Jo-1 [19] = molecular target: Jo-1 (UniProt P12081); experiment: AtheNA, Ab 6.25 ug/ml
Sm (Smith antigen) [20] = experiment: AtheNA, Ab 6.25 ug/ml
Histones [21] = experiment: AtheNA, Ab 6.25 ug/ml
SSB [22] = molecular target: SSB (UniProt P05455); experiment: AtheNA, Ab 6.25 ug/ml
RNP (ribonucleoprotein) [23] = experiment: AtheNA, Ab 6.25 ug/ml
Scl-70 [24] = molecular target: Scl-70 (UniProt P11387); experiment: AtheNA, Ab 6.25 ug/ml
SSA [25] = experiment: AtheNA, Ab 50 ug/ml
Centromere B [26] = molecular target: Centromere B (UniProt P07199); experiment: AtheNA, Ab 50 ug/ml
Jo-1 [27] = molecular target: Jo-1 (UniProt P12081); experiment: AtheNA, Ab 50 ug/ml
Sm (Smith antigen) [28] = experiment: AtheNA, Ab 50 ug/ml
Histones [29] = experiment: AtheNA, Ab 50 ug/ml
SSB [30] = molecular target: SSB (UniProt P05455); experiment: AtheNA, Ab 50 ug/ml
RNP (ribonucleoprotein) [31] = experiment: AtheNA, Ab 50 ug/ml
Scl-70 [32] = molecular target: Scl-70 (UniProt P11387); experiment: AtheNA, Ab 50 ug/ml
[33] = molecular target: HIV-1 CH505 transmitted/founder gp120 Env (HIV-1); experiment: competition ELISA, blocking of sCD4 binding to gp120
CH0505_CON D7gp120/293i = experiment: ELISA
[34] = molecular target: CH505.TF mutant gp120 M8 (HIV-1); experiment: ELISA
CH505.M7D8gp120/293F = experiment: ELISA
CH505.M9D8gp120/293F = experiment: ELISA
[35] = molecular target: CH505.TF mutant gp120 M6 (HIV-1); experiment: ELISA
CH505.M19D8gp120 = experiment: ELISA
CH505w030.20D8gp120/293F = experiment: ELISA
CH505w020.14D8gp120 = experiment: ELISA
CH505.M10D8gp120 = experiment: ELISA
[36] = molecular target: CH505.TF mutant gp120 M20 (HIV-1); experiment: ELISA
CH505.M21D8gp120/293F = experiment: ELISA
CH505w136.B18D8gp120 = experiment: ELISA
CH505.w30.12D8gp120 = experiment: ELISA
CH505.M5D8gp120293F = experiment: ELISA
CH505.M11D8gp120/293F = experiment: ELISA
SSA [37] = experiment: AtheNA, Ab 50 ug/ml; remark: listed apart in the source
Jo-1 [38] = molecular target: Jo-1 (UniProt P12081); experiment: AtheNA, Ab 50 ug/ml; remark: listed apart in the source
Sm (Smith antigen) [39] = experiment: AtheNA, Ab 50 ug/ml; remark: listed apart in the source
Histones [40] = experiment: AtheNA, Ab 50 ug/ml; remark: listed apart in the source
SSB [41] = molecular target: SSB (UniProt P05455); experiment: AtheNA, Ab 50 ug/ml; remark: listed apart in the source
[42] = molecular target: HIV-1 CH505 transmitted/founder gp120 Env (HIV-1); experiment: competition ELISA, blocking of CH106 binding to gp120
SSA [43] = experiment: AtheNA, Ab 25 ug/ml; remark: listed apart in the source
Centromere B [44] = molecular target: Centromere B (UniProt P07199); experiment: AtheNA, Ab 25 ug/ml; remark: listed apart in the source
Jo-1 [45] = molecular target: Jo-1 (UniProt P12081); experiment: AtheNA, Ab 25 ug/ml; remark: listed apart in the source
Sm (Smith antigen) [46] = experiment: AtheNA, Ab 25 ug/ml; remark: listed apart in the source
Histones [47] = experiment: AtheNA, Ab 25 ug/ml; remark: listed apart in the source
SSB [48] = molecular target: SSB (UniProt P05455); experiment: AtheNA, Ab 25 ug/ml; remark: listed apart in the source
RNP (ribonucleoprotein) [49] = experiment: AtheNA, Ab 25 ug/ml; remark: listed apart in the source
Scl-70 [50] = molecular target: Scl-70 (UniProt P11387); experiment: AtheNA, Ab 25 ug/ml; remark: listed apart in the source

Chain of SSB (P05455 whole entry): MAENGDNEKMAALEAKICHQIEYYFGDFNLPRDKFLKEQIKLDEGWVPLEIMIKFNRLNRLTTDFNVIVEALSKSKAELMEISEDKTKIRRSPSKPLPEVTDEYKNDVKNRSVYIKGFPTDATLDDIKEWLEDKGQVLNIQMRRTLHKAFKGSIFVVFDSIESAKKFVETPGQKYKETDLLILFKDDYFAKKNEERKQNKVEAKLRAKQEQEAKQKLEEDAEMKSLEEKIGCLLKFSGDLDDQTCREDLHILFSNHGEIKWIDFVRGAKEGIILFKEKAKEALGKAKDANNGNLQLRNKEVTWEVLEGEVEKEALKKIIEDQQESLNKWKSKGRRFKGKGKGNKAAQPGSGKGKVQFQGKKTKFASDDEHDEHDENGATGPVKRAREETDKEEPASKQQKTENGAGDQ
Chain of Jo-1 (P12081 whole entry): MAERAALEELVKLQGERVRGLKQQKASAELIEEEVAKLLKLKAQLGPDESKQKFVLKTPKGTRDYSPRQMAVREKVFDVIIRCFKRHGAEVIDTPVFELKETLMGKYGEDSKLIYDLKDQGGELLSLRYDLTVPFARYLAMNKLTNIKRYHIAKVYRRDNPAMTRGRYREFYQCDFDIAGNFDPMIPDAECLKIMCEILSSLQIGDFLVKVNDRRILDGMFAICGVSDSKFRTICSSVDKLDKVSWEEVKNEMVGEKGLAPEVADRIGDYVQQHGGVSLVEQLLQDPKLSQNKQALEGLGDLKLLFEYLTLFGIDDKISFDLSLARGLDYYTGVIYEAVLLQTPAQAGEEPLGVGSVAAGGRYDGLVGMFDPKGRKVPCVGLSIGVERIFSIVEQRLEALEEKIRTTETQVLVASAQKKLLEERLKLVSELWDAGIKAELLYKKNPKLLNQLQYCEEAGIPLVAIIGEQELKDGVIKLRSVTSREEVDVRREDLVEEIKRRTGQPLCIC
Chain of Centromere B (P07199 whole entry): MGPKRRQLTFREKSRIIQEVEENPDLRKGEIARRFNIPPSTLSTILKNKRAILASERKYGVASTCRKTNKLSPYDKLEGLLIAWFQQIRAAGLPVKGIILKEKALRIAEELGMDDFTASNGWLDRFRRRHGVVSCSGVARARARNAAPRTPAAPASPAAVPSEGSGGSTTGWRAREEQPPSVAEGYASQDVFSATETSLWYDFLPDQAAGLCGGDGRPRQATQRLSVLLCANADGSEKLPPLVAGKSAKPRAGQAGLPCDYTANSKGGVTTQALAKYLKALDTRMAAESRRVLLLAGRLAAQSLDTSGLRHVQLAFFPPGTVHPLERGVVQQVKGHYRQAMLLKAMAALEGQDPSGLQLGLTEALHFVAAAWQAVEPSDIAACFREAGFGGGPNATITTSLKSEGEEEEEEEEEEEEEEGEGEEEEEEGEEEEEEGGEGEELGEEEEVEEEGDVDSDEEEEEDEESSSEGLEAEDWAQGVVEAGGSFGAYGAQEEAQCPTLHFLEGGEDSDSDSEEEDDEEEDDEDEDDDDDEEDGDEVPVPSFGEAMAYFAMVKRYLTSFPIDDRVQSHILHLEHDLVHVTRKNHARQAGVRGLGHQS

Substance: DH270IA1 (antibody)
- AtheNA signal (SSA [1]): 3
- AtheNA signal (Centromere B [2]): 5
- AtheNA signal (Jo-1 [3]): 3
- AtheNA signal (Sm (Smith antigen) [4]): 5
- AtheNA signal (Histones [5]): 4
- AtheNA signal (SSB [6]): 6
- AtheNA signal (RNP (ribonucleoprotein) [7]): 2
- AtheNA signal (Scl-70 [8]): 1
- AtheNA signal (SSA [9]): 3
- AtheNA signal (Centromere B [10]): 3
- AtheNA signal (Jo-1 [11]): 6
- AtheNA signal (Sm (Smith antigen) [12]): 5
- AtheNA signal (Histones [13]): 4
- AtheNA signal (SSB [14]): 6
- AtheNA signal (RNP (ribonucleoprotein) [15]): 3
- AtheNA signal (Scl-70 [16]): 2
- AtheNA signal (SSA [17]): 5
- AtheNA signal (Centromere B [18]): 2
- AtheNA signal (Jo-1 [19]): 5
- AtheNA signal (Sm (Smith antigen) [20]): 3
- AtheNA signal (Histones [21]): 2
- AtheNA signal (SSB [22]): 1
- AtheNA signal (RNP (ribonucleoprotein) [23]): 2
- AtheNA signal (Scl-70 [24]): 2
- AtheNA signal (SSA [25]): 5
- AtheNA signal (Centromere B [26]): 10
- AtheNA signal (Jo-1 [27]): 5
- AtheNA signal (Sm (Smith antigen) [28]): 5
- AtheNA signal (Histones [29]): 9
- AtheNA signal (SSB [30]): 6
- AtheNA signal (RNP (ribonucleoprotein) [31]): 2
- AtheNA signal (Scl-70 [32]): 4

Substance: CH235 IA1 (antibody)
- IC50 [33]: > 100 µg/mL
- LogAUC (CH0505_CON D7gp120/293i): 6.89
- LogAUC [34]: 0
- LogAUC (CH505.M7D8gp120/293F): 0
- LogAUC (CH505.M9D8gp120/293F): 0
- LogAUC [35]: 6.1
- LogAUC (CH505.M19D8gp120): 2.78
- LogAUC (CH505w030.20D8gp120/293F): 4.82
- LogAUC (CH505w020.14D8gp120): 6.52
- LogAUC (CH505.M10D8gp120): 7.08
- LogAUC [36]: 0
- LogAUC (CH505.M21D8gp120/293F): 0
- LogAUC (CH505w136.B18D8gp120): 2.36
- LogAUC (CH505.w30.12D8gp120): 2.4
- LogAUC (CH505.M5D8gp120293F): 9.18
- LogAUC (CH505.M11D8gp120/293F): 2.85
- AtheNA signal (relative luminescence units) (SSA [37]): 149
- AtheNA signal (relative luminescence units) (Jo-1 [38]): 176
- AtheNA signal (relative luminescence units) (Sm (Smith antigen) [39]): 104
- AtheNA signal (relative luminescence units) (Histones [40]): 100
- AtheNA signal (relative luminescence units) (SSB [41]): 217
- IC50 [42]: 82.4 µg/mL
- AtheNA signal (relative luminescence units) (SSA [9]): 151
- AtheNA signal (relative luminescence units) (Centromere B [10]): 81
- AtheNA signal (relative luminescence units) (Jo-1 [11]): 152
- AtheNA signal (relative luminescence units) (Sm (Smith antigen) [12]): 77
- AtheNA signal (relative luminescence units) (Histones [13]): 100
- AtheNA signal (relative luminescence units) (SSB [14]): 167
- AtheNA signal (relative luminescence units) (RNP (ribonucleoprotein) [15]): 56
- AtheNA signal (relative luminescence units) (Scl-70 [16]): 40
- AtheNA signal (relative luminescence units) (SSA [43]): 150
- AtheNA signal (relative luminescence units) (Centromere B [44]): 80
- AtheNA signal (relative luminescence units) (Jo-1 [45]): 171
- AtheNA signal (relative luminescence units) (Sm (Smith antigen) [46]): 110
- AtheNA signal (relative luminescence units) (Histones [47]): 99
- AtheNA signal (relative luminescence units) (SSB [48]): 197
- AtheNA signal (relative luminescence units) (RNP (ribonucleoprotein) [49]): 67
- AtheNA signal (relative luminescence units) (Scl-70 [50]): 52
- AtheNA signal (relative luminescence units) (SSA [17]): 175
- AtheNA signal (relative luminescence units) (Centromere B [18]): 87
- AtheNA signal (relative luminescence units) (Jo-1 [19]): 129
- AtheNA signal (relative luminescence units) (Sm (Smith antigen) [20]): 77
- AtheNA signal (relative luminescence units) (Histones [21]): 118
- AtheNA signal (relative luminescence units) (SSB [22]): 117
- AtheNA signal (relative luminescence units) (RNP (ribonucleoprotein) [23]): 46
- AtheNA signal (relative luminescence units) (Scl-70 [24]): 31
